Patent publication US20160046703A1 (ORGENTEC DIAGNOSTIKA, published 2016)
Values belong to the binder of their own block, whether it stands above or below them.

Target: bovine serum albumin (BSA) (bovine, UniProt P02769 25-607)
Test: ELISA on BSA-coated microtitre plates, detection with peroxidase-labelled RGS-6xHis antibody
Method: For the ELISA detection of the specific β2-glycoprotein-binding activity of the scFv-CAD reaction module, serial dilutions of scFv-CAD in the indicated concentration were applied to microtitre plates coated with β2-glycoprotein and, for control purposes, with bovine serum albumin (BSA). The binding was determined using a peroxidase-labelled RGS-6×-His antibody (Qiagen, Hilden) and a tetramethylbenzidine (TMB) colour reaction by measurement of the O.D. 450.
Characterisation of the binding reaction of the CAD-IgG-CH3-Knob02 modubody to the target β2-glycoprotein. […] The binding was determined using a peroxidase-labelled RGS-6×-His antibody (Qiagen, Hilden) and a tetramethylbenzidine (TMB) colour reaction by measurement of the O.D. 450 nm.
In order to determine whether the CAD-IgG-CH3-Knob02 modubody has retained the β2-glycoprotein-binding activity of the scFv-CAD, purified CAD-IgG-CH3-Knob02 preparations were tested by immunoassays. […] The microtitre plates were washed and the binding of the CAD-IgG-CH3-Knob02 modubody was determined using a peroxidase-labelled RGS-6×-His antibody (Qiagen, Hilden) and a tetramethylbenzidine (TMB) colour reaction by measurement of the O.D. 450 nm. […] Specific binding to β2-glycoprotein was detected even at a concentration of the CAD-IgG-CH3-Knob02 modubody of 19 ng/ml.

bovine serum albumin (BSA), sequence (P02769 25-607 limits assumed): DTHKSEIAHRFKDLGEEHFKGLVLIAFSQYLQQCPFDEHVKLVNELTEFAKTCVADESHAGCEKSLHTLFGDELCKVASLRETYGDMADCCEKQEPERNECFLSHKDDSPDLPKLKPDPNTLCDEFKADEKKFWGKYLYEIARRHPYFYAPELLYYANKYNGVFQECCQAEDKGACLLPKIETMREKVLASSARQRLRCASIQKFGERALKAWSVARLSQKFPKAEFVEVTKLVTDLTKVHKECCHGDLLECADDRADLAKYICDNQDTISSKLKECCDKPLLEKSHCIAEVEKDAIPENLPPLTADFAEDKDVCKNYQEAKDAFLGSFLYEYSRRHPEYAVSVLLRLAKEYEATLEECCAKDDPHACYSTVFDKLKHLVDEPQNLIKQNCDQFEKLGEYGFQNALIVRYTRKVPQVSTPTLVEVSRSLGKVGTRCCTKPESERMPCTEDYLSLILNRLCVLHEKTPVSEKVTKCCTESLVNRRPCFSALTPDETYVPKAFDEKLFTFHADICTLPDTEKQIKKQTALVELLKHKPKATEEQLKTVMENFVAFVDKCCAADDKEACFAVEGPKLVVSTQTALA

binding result: no binding (tested: 0.019-10 µg/ml)
B1: scFv-CAD β2-glycoprotein-binding module (artificial protein sequence scFv-RP-CAD-P) (scFv)
scFv: LVPRGSDVLMTQTPLSLPVSLGDQASISCRSSQSIVHSNGNTYLEWYLQKPGQSPKLLIYKVSNRFSGVPDRFSGSGSGTDFTLKISRVEAEDLGVYYCFQGSHVPYTFGGGTKLEIKRTGSGSGGGGSGGGGSGGGGSSGGGGSGGGGSGGGGSGSGEVQLQQSGPELVKPGASVKISCKASGYTFTDYYMHWVRQRPGQGLEWIGEIYPGSGNTSYNEKFRGKATLTADKSSSTAYMQLSSLTSEDSAVYFCARGTLDYTMDYWGQGTSVTVSS
notes: Expressed in E. coli from pQE-80L as a 30 kDa protein; also called CAD-scFv; scFV-CAD reaction module; not shown: RGS-6xHis tag from expression vector pQE-80L (detected with anti-RGS-6xHis antib)

binding result: no binding (tested: 0.019-10 µg/ml)
B2: single-chain CAD-IgG-CH3-Knob02 modubody (designed binder)
chain: LVPRGSDVLMTQTPLSLPVSLGDQASISCRSSQSIVHSNGNTYLEWYLQKPGQSPKLLIYKVSNRFSGVPDRFSGSGSGTDFTLKISRVEAEDLGVYYCFQGSHVPYTFGGGTKLEIKRTGSGSGGGGSGGGGSGGGGSSGGGGSGGGGSGGGGSGSGEVQLQQSGPELVKPGASVKISCKASGYTFTDYYMHWVRQRPGQGLEWIGEIYPGSGNTSYNEKFRGKATLTADKSSSTAYMQLSSLTSEDSAVYFCARGTLDYTMDYWGQGTSVTVSSGSGGGGSGGGGSGGGGSSGGGGSGGGGSGGGGSGSGEPQVYTLPPSREEMTKNQVSLYCLVKGFYPSDIAVEWESNGQPENNYKTYPPVLDSDGSFYLYSKLTVDKSRWQQGNVFSCSVMHEALHNHYTQKSLSL
notes: Domain order is VL-linker-VH-linker-IgG-CH3-Knob02, 44 kDa, made in E. coli; also called CAD-IgG-CH3-Knob32 (as misprinted once); not shown: RGS-6xHis tag from vector pQE-80L
